From paper PMC3281842 (2012) come the findings set out here.

The target of the test is TDRD3 (aa 520–633) (human, UniProt Q9H7E2 520-633). Briefly: ITC.

Square brackets hold non-standard residues; d marks the D form. Ends that are not written are not given here. Arg(Me2a) = CN(C)C(=N)NCCC[C@H](N)C(=O)O Bounds are passed on as bounds.

Take TG[Arg(Me2a)]ARARA [PIWIL1_R4me2a peptide (TGRme2aARARA)]: the dissociation constant (Kd) is more than 500 µM.

As a reminder, the Kd is the constant that tells how readily two partners part at equilibrium. Higher therefore signals lower affinity.
